One molecule from patent publication US20070087413A1 (GENHUNTER, published 2007) can be followed below.

This assay concerns the target human TNF-α (R & D Systems) (human, UniProt P01375 77-233). Description: cell-based or functional assay.

Where “and” joins values, the source holds several entries; their conditions need not be identical. Identical values can stand only once.

Chain of human TNF-α (R & D Systems) (P01375 77-233 limits assumed): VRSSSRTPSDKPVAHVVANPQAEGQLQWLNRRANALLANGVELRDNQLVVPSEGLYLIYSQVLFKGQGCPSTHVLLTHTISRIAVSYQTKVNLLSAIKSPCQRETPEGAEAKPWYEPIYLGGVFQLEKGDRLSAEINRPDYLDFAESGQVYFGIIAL

B1: trimeric soluble human TNF-RII-T2 fusion protein (human soluble TNF-RII fused to the T2 C-propeptide of human α(I) collagen) (receptor)
chain: LPAQVAFTPYAPEPGSTCRLREYYDQTAQMCCSKCSPGQHAKVFCTKTSDTVCDSCEDSTYTQLWNWVPECLSCGSRCSSDQVETQACTREQNRICTCRPGWYCALSKQEGCRLCAPLRKCRPGFGVARPGTETSDVVCKPCAPGTFSNTTSSTDICRPHQICNVVAIPGNASMDAVCTSTSPTRSMAPGAVHLPQPVSTRSQHTQPTPEPSTAPSTSFLLPMGPSPPAEGSTGSDANVVRDRDLEVDTTLKSLSQQIENIRSPEGSRKNPARTCRDLKMCHSDWKSGEYWIDPNQGCNLDAIKVFCNMETGETCVYPTQPSVAQKNWYISKNPKDKRHVWFGESMTDGFQFEYGGQGSDPADVAIQLTFLRLMSTEASQNITYHCKNSVAYMDQQTGNLKKALLLKGSNEIEIRAEGNSRFTYSVTVDGCTSHTGAWGKTVIEYKTTKSSRLPIIDVAPLDVGAPDQEFGFDVGPVCFL
In the case of B1, the “apparent Ki-50 (50% inhibition) of TNF-α mediated apoptosis of WEHI-13VAR cells, human TNF-α at 0.5 ng/mL” value is ~2 ng/mL and ~8e-12 M.
